Laboratory results: article PMC5474753 (Journal of molecular biology, 2016)

Biological target: the molecule itself
Assay: FRET or BRET

B1: full-length FGFR3 C228R mutant (CHO) (receptor)
chain: ESLGTEQRVVGRAAEVPGPEPGQQEQLVFGSGDAVELSCPPPGGGPMGPTVWVKDGTGLVPSERVLVGPQRLQVLNASHEDSGAYSCRQRLTQRVLCHFSVRVTDAPSSGDDEDGEDEAEDTGVDTGAPYWTRPERMDKKLLAVPAANTVRFRCPAAGNPTPSISWLKNGREFRGEHRIGGIKLRHQQWSLVMESVVPSDRGNYTRVVENKFGSIRQTYTLDVLERSPHRPILQAGLPANQTAVLGSDVEFHCKVYSDAQPHIQWLKHVEVNGSKVGPDGTPYVTVLKTAGANTTDKELEVLSLHNVTFEDAGEYTCLAGNSIGFSHHSAWLVVLPAEEELVEADEAGSVYAGILSYGVGFFLFILVVAAVTLCRLRSPPKKGLGSPTVHKISRFPLKRQVSLESNASMSSNTPLVRIARLSSGEGPTLANVSELELPADPKWELSRARLTLGKPLGEGCFGQVVMAEAIGIDKDRAAKPVTVAVKMLKDDATDKDLSDLVSEMEMMKMIGKHKNIINLLGACTQGGPLYVLVEYAAKGNLREFLRARRPPGLDYSFDTCKPPEEQLTFKDLVSCAYQVARGMEYLASQKCIHRDLAARNVLVTEDNVMKIADFGLARDVHNLDYYKKTTNGRLPVKWMAPEALFDRVYTHQSDVWSFGVLLWEIFTLGGSPYPGIPVEELFKLLKEGHRMDKPANCTHDLYMIMRECWHAAPSQRPTFKQLVEDLDRVLTVTSTDEYLDLSAPFEQYSPGGQDTPSSSSSGDDSVFAHDLLPPAPPSSGGSRT
  stoichiometry N: 2
